Experimental data from patent publication US20050223436A1, “EPSP synthase highly tolerant to glyphosate” (priority 2003, published 2005).

Tests used:
tobacco = test: Glyphosate tolerance of transgenic tobacco; format: in vivo; settings: transgenic plants, greenhouse assays
Procedure: (4) Transformation of tobacco was carried out according to the leaf disc transformation protocol, using sterilized tissue of a healthy leaf of about 2 weeks old. The main vein was removed and the leaf was cut into small pieces of 2 cm^2.
(8) After development of the roots, plants were taken out. The attached solid culture media was washed off with sterile water. The plants were initially kept in a high humidity environment such as a plastic container with a glass cover for a few days. After the plants had grown stronger, the glass covers were removed, and the plants were transferred to solid culture media containing 10 mM glyphosate for screening of glyphosate tolerant plants.
(10) Glyphosate tolerance assays in greenhouse also confirmed that the transgenic plants could grow well in media containing 15 mM glyphosate.

E. coli JM109 = test: Glyphosate tolerance of E. coli JM109 transformants on MOPS media plates; format: cell-based; settings: bacteria transformed with DNA encoding the enzyme (summary of Example 1)
Text: A SuperCos1 Cosmid Vector kit (Stratagene Co., Ltd) was used to construct a community genomic DNA cosmid library. The community genomic DNA was digested with restriction endonuclease Sau3AI at 0.006 unit/microgram purified DNA. DNA fragments of about 40 kb were collected using the freeze-thaw method, and then ligated with SuperCos1/BamH1 vector. A cosmid genomic DNA library was constructed according to the manual of Stratagene Co., Ltd. For screening of glyphosate tolerant clones, JM109 E. coli was used as the acceptor bacterium for the genomic library construct, as glyphosate is only effective on an inhibitory medium such as M9 and MOPS. The ligated DNA was packaged into lambda phage particles (Stratagene, Gigapack Gold) according to the manufacturer's protocol. E. coli strain JM109 was infected with the packaged product. The transformants were selected on tetracycline LB media. Positive clones were then plated on LB media containing tetracycline and tetracycline+kanamycin, respectively. Clones growing on both media were considered as negative recombinants resulting from vector ligated with vector DNA. The number of positive transformants was calculated as the total number of colonies minus background false negative colonies. This number was used to determine the titer of the genomic library, which was 4×10^6 pfu/ml, meeting the requirement for library construction (>10^6 pfu/ml). […]

B1: EPSP synthase: novel 444 amino acid EPSP synthase highly tolerant to glyphosate, encoded by SEQ ID NO:1/3 (protein, listed as Unknown bacterium)
chain: MACLPDDSGPHVGHSTPPRLDQEPCTLSSQKTVTVTPPNFPLTGKVAPPGSKSITNRALLLAALAKGTSRLSGALKSDDTRHMSVALRQMGVTIDEPDDTTFVVTSQGSLQLPAQPLFLGNAGTAMRFLTAAVATVQGTVVLDGDEYMQKRPIGPLLATLGQNGIQVDSPTGCPPVTVHGMGKVQAKRFEIDGGLSSQYVSALLMLAACGEAPIEVALTGKDIGARGYVDLTLDCMRAFGAQVDAVDDTTWRVAPTGYTAHDYLIEPDASAATYLWAAEVLTGGRIDIGVAAQDFTQPDAKAQAVIAQFPNMQATVVGSQMQDAIPTLAVLAAFNNTPVRFTELANLRVKECDRVQALHDGLNEIRPGLATIEGDDLLVASDPALAGTACTALIDTHADHRIAMCFALAGLKVSGIRIQDPDCVAKTYPDYWKAWPSLGVHLND
tobacco
  glyphosate concentration in which transgenic tobacco grew: 15 mM
E. coli JM109
  glyphosate concentration of media in which transformed bacteria grew: 10 to 150 mM
